Test results from US20100015126A1, “Methods of Binding of Cross-Beta Structures By Chaperones” (priority 2006, published 2010).
Each block holds one molecule with its values, some of them ahead of it.

Tests used:
[1] = molecular target: T1, BiP-Sepharose (Homo sapiens, UniProt P11021); assay: BiP-Sepharose extraction of proteins from patient plasma, serum, synovial fluid and mass-spectrometric identification; type: binding; details: Sample B6: eluate of BiP-Sepharose contacted with RA patient IV synovial fluid
T1 construct: The human BiP gene except the signal peptide encoding region was obtained from Geneart (Germany); linker […]; made in house; host or cells: HEK 293E cells, transient transfection, PABC674 vector; secreted into the medium
T1 sequence (P11021 19-654): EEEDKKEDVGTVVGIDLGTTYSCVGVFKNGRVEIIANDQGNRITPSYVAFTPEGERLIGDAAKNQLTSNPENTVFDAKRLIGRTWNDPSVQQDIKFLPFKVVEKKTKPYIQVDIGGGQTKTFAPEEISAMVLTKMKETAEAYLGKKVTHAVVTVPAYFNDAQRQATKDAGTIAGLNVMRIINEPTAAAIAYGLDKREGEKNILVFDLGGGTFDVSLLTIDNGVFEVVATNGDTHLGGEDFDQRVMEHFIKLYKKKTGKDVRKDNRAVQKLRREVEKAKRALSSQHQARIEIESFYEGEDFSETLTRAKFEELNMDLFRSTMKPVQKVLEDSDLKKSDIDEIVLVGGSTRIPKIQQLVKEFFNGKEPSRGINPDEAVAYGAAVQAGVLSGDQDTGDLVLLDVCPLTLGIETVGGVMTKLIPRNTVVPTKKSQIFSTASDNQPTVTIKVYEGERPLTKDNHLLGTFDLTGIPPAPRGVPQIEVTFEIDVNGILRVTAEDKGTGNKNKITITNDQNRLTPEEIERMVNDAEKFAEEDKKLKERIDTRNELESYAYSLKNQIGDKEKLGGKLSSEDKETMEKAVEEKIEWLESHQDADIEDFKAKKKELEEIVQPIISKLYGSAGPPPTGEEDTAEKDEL
Method: BiP was coated on CNBr-Sepharose (GE-Healthcare, Amersham Biosciences). Immobilization of BiP was performed essentially as described elsewhere in this application for NHS-Sepharose. CNBr-matrix was dissolved at 200 mg/ml in 1 mM HCl and treated the same as the NHS-matrix, except for an additional 5 minutes activation step in 1 mM HCl on a roller device before washing in this buffer. BiP was diluted in immobilization buffer (50 mM NaCl and 40 mM NaHCO3) to a concentration of 820 μg/ml. A total volume of 2 ml BiP solution (1640 μg BiP) was incubated with 360 mg beads. Negative control matrix was exposed to immobilization buffer, only. After overnight immobilization matrix was blocked with Tris and washed.
Six samples were incubated with the BiP-Sepharose, IgIV-Sepharose and the control-Sepharose: Normal pooled plasma, plasma of a patient I or of a patient II, with AL amyloidosis, serum of a patient III with RA (Rheumatoid Factor (RF) titer 682), control serum and synovial fluid of a patient IV with RA (RF titer 23). All samples were diluted 20× in HBS and applied to 200 μl beads in two volumes of 500 μl. One volume was incubated for 4 h at RT and supernatant was discarded after centrifugation (2 minutes at 1400 rpm). Subsequently, the second volume was applied to the same matrix and incubated overnight on a roller device at 4° C. […] To collect the eluates, the matrices were centrifuged and the two eluates were pooled for each sample.
Protein digests were desalted as described (Rappsilber et al., 2003), vacuum dried and dissolved in 2.5% formic acid.
For analysis of peptide mixtures, an Agilent 1100 HPLC system (Agilent Technologies) connected to a Thermo Finnigan LTQ-MS (Thermo Electron, Bremen, Germany) was used. Protein digests were injected on a trap column (Reprosil C18 RP (Dr Maisch, Germany), 20 mm×100 μm I.D.) at 5 μl/minute. Subsequently, the peptides were transferred with a split-reduced flow rate of 100 nL/minute solvent A (0.1 M acetic acid) on the analytical column (Reprosil C18 RP, 20 cm×50 μm I.D.). […] The column effluent was directly introduced into the ESI source of the mass spectrometer via a butt-connected nano-ESI emitter (New Objectives, Woburn, Mass.). The mass spectrometer was operated in the positive ion mode and parent ions were selected for fragmentation in data-dependent mode.
After mass spectrometric measurements, peak lists were generated using BioWorks software (Thermo Electron, Bremen, Germany). Protein identification was performed using Mascot software (www.matrixscience.com) by searching the IPIhuman database (version 3.24, downloaded from ftp://ftp.ebi.ac.uk/pub/databases/IPI/current) using the following settings: fully tryptic peptides, peptide tolerance 0.8 Da, MS/MS tolerance 0.9 Da, 1 missed cleavage allowed, carbamidomethyl (Cys) and oxidation (Met) as fixed and variable modification, respectively. The Scaffold software package (www.proteomesoftware.com) was used to parse the data and to filter peptides at a confidence level of 95%, allowing only protein identification with at least 2 peptides identified.

[2] = molecular target: T2, human mitochondrial HSP60 (Homo sapiens, UniProt P10809); assay: ELISA: binding of HSP60 to immobilized (misfolded) protein ligands
T2 construct: Dr. W. van Eden, Utrecht University; host or cells: E. coli
T2 sequence (P10809 27-573): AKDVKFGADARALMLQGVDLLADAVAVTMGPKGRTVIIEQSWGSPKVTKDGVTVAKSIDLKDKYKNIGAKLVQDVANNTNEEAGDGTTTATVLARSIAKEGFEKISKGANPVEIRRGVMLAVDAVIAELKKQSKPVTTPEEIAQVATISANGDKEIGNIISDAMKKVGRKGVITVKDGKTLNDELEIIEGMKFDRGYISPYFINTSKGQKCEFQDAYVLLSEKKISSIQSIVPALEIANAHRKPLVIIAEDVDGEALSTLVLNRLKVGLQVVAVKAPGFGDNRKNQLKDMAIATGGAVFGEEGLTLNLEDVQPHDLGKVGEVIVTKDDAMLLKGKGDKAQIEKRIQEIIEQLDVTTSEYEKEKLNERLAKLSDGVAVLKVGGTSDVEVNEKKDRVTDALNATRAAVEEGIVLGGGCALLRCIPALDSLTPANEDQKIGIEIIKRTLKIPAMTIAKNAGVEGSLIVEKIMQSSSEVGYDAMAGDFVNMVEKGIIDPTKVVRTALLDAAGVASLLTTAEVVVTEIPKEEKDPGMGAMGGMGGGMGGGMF
Method: Recombinant human HSP60 with N-terminal His-tag was a kind gift of Dr. R. van der Zee and Prof. Dr. W. van Eden (Institute of Infectious Diseases and Immunology, Faculty of Veterinary Medicine, Utrecht University, Utrecht, The Netherlands), and was supplied in lyophilized form. The HSP60 was produced in E. coli and purified using Nickel-Sepharose. The HSP60 was lyophilized from 20-40 mM ammonium-bicarbonate solution, after purification, and stored at −20° C. The construct lacks the mitochondrial signal sequence. […] Before use, the lyophilized protein is dissolved at room temperature at 1 mg/ml in 20-40 mM NH4HCO3, resulting in a pH of 7.0. Aliquots are stored at −20° C. or −80° C. The mitochondrial HSP60 is a functional dimer of heptamers (MW(HSP60 monomer)=˜58 kDa), and is involved in multimer protein assembling and aids in transport of unfolded proteins across membranes. For the binding studies, at two occasions separate HSP60 solutions were prepared originating from the same batch of purified protein, lyophilized in separate Eppendorf cups.
Binding of chaperones to immobilized (misfolded) protein ligands was determined using an enzyme linked immuno sorbent assay (ELISA) approach. […] After 5 washes with wash buffer followed by two washes with PBS, binding of antibodies was assessed. […] Plates were read at 450 nm. […]

[3] = molecular target: T3, human BiP (Homo sapiens, UniProt P11021); assay: ELISA: binding of BiP-FLAG-His to immobilized (misfolded) protein ligands; details: ligands coated at 5 μg/ml; 6BB peptides and oxLDL 50 μg/ml
T3 construct: The human BiP gene except the signal peptide encoding region was obtained from Geneart (Germany); linker […]; made in house; host or cells: HEK 293E cells, transient transfection, PABC674 vector; secreted into the medium
T3 sequence (P11021 19-654): as the sequence (P11021 19-654) above
Method: Enzyme Linked Immunosorbent Assay for Testing of Chaperone Binding to Misfolded Proteins
Binding of chaperones to immobilized (misfolded) protein ligands was determined using an enzyme linked immuno sorbent assay (ELISA) approach. For this purpose 50 μl/well of potential ligands at indicated concentrations or coat buffer only for control and background measurement purposes, were coated overnight at 4° C. or coated for 1 h at room temperature, with motion, in 50 mM NaHCO3 pH 9.6 (coat buffer). In general, ligands were coated at 5 μg/ml, unless stated otherwise. For example, BiP binding peptides 6BB# and oxLDL were coated at 50 μg/ml. Native haemoglobin (Sigma-Aldrich, H7379), albumin, IgIV Gammagard and ovalbumin controls were prepared from lyophilized stocks. The controls were prepared by dissolving lyophilized proteins at 1 mg/ml in PBS upon resuspending by pipetting, followed by a 30 minutes period at the roller device, at room temperature. The protein solutions were centrifuged for 10 minutes at 16,000*g and diluted in coat buffer. […] After 5 washes with wash buffer followed by two washes with PBS, binding of antibodies was assessed. […] Plates were read at 450 nm. Triplicates were averaged and standard deviations calculated. […] Subsequently, sub-optimal concentrations of chaperones for binding to misfolded protein ligands are determined, and these concentrations are used for inhibition studies. […]

# of peptides in sample A# [1]: 1
B1: Immunoglobulin heavy constant mu (protein)
chain: GSASAPTLFPLVSCENSPSDTSSVAVGCLAQDFLPDSITFSWKYKNNSDISSTRGFPSVLRGGKYAATSQVLLPSKDVMQGTDEHVVCKVQHPNGNKEKNVPLPVIAELPPKVSVFVPPRDGFFGNPRKSKLICQATGFSPRQIQVSWLREGKQVGSGVTTDQVQAEAKESGPTTYKVTSTLTIKESDWLGQSMFTCRVDHRGLTFQQNASSMCVPDQDTAIRVFAIPPSFASIFLTKSTKLTCLVTDLTTYDSVTISWTRQNGEAVKTHTNISESHPNATFSAVGEASICEDDWNSGERFTCTVTHTDLPSPLKQTISRPKGVALHRPDVYLLPPAREQLNLRESATITCLVTGFSPADVFVQWMQRGQPLSPEKYVTSAPMPEPQAPGRYFAHSILTVSEEEWNTGETYTCVVAHEALPNRVTERTVDKSTGKPTLYNVSLVMSDTAGTCY

Binding of concentration series of HSP60 to coated ligand [2]: did not bind | Binding of concentration series of BiP to coated ligand [3]: did not bind
B2: ovalbumin: native chicken ovalbumin control (protein)
chain: GSIGAASMEFCFDVFKELKVHHANENIFYCPIAIMSALAMVYLGAKDSTRTQINKVVRFDKLPGFGDSIEAQCGTSVNVHSSLRDILNQITKPNDVYSFSLASRLYAEERYPILPEYLQCVKELYRGGLEPINFQTAADQARELINSWVESQTNGIIRNVLQPSSVDSQTAMVLVNAIVFKGLWEKAFKDEDTQAMPFRVTEQESKPVQMMYQIGLFRVASMASEKMKILELPFASGTMSMLVLLPDEVSGLEQLESIINFEKLTEWTSSNVMEERKIKVYLPRMKMEEKYNLTSVLMAMGITDVFSSSANLSGISSAESLKISQAVHAAHAEINEAGREVVGSAEAGVDAASVSEEFRADHPFLFCIKHIATNAVLFFGRCVSP
